Data set [1] concerns the molecule itself. The experiment in a line: single-molecule TIRF microscopy, real-time dissociation.
Data set [2] concerns the molecule itself. Put plainly: single-molecule TIRF microscopy, kinetics.
Data set [3] deals with the molecule itself. Put plainly: single-molecule TIRF microscopy with step-photobleaching and intensity counting.

Here are results for 2 proteins from PMC11615320 (Communications Biology, 2024).

B1: cytosolic domain of Synaptotagmin-1 (Syt-1), residues 79 to 421, wild type (domain or fragment, rat, UniProt P21707 79-421, looked up)
chain: CKKSLFKKKNKKKGKEKGGKNAINMKDVKDLGKTMKDQALKDDDAETGLTDGEEKEEPKEEEKLGKLQYSLDYDFQNNQLLVGIIQAAELPALDMGGTSDPYVKVFLLPDKKKKFETKVHRKTLNPVFNEQFTFKVPYSELGGKTLVMAVYDFDRFSKHDIIGEFKVPMNTVDFGHVTEEWRDLQSAEKEEQEKLGDIAFSLRYVPTAGKLTVVILEAKNLKKMDVGGLSDPYVKIHLMQNGKRLKKKKTTIKKNTLNPYYNESFSFEVPFEQIQKVQVVVTVLDYDKIGKNDAIGKVFVGYNSTGAELRHWSDMLANPRRPIAQWHTLQVEEEVDAMLAVKK
modifications: AlexaFluor 647 maleimide or AlexaFluor 488 maleimide on Cys79
The term koff denotes a measure of how fast the partners let go of each other. What is called stoichiometry N is a count of units in the complex or per binding partner. In data set [1], B1 returned a dissociation rate constant (koff) of 0.0024 ± 0.0004 s⁻¹. For the same protein, in data set [2], the “KD of the large clusters” value stood at 6 ± 2 nM and the “KD of the small clusters” value turned out to be 40 ± 8 nM. The “stoichiometry N” value in data set [3] was 5 ± 2 copies.

B2: cytosolic domain (residues 79 to 421) of the Syt-1 F349A mutant (domain or fragment, rat, UniProt P21707 79-421, looked up)
chain: CKKSLFKKKNKKKGKEKGGKNAINMKDVKDLGKTMKDQALKDDDAETGLTDGEEKEEPKEEEKLGKLQYSLDYDFQNNQLLVGIIQAAELPALDMGGTSDPYVKVFLLPDKKKKFETKVHRKTLNPVFNEQFTFKVPYSELGGKTLVMAVYDFDRFSKHDIIGEFKVPMNTVDFGHVTEEWRDLQSAEKEEQEKLGDIAFSLRYVPTAGKLTVVILEAKNLKKMDVGGLSDPYVKIHLMQNGKRLKKKKTTIKKNTLNPYYNESFSFEVPAEQIQKVQVVVTVLDYDKIGKNDAIGKVFVGYNSTGAELRHWSDMLANPRRPIAQWHTLQVEEEVDAMLAVKK
modifications: AlexaFluor 647 maleimide or AlexaFluor 488 maleimide on Cys79
A word on the Kd: it is the concentration at which binding is half-saturated. High values mean lower affinity, low ones higher affinity. For the protein B2, in data set [1], the koff was determined as 0.0017 ± 0.0003 s⁻¹. In data set [2], this protein gave an equilibrium dissociation constant (Kd) of 45 ± 15 nM.
